# Entries after “also recorded” stand apart in the source; their conditions may differ.
# B1: full-length lactoferrin: full-length human lactoferrin protein (protein, UniProt P02788 1-710, looked up)
# chain: MKLVFLVLLFLGALGLCLAGRRRSVQWCAVSQPEATKCFQWQRNMRKVRGPPVSCIKRDSPIQCIQAIAENRADAVTLDGGFIYEAGLAPYKLRPVAAEVYGTERQPRTHYYAVAVVKKGGSFQLNELQGLKSCHTGLRRTAGWNVPIGTLRPFLNWTGPPEPIEAAVARFFSASCVPGADKGQFPNLCRLCAGTGENKCAFSSQEPYFSYSGAFKCLRDGAGDVAFIRESTVFEDLSDEAERDEYELLCPDNTRKPVDKFKDCHLARVPSHAVVARSVNGKEDAIWNLLRQAQEKFGKDKSPKFQLFGSPSGQKDLLFKDSAIGFSRVPPRIDSGLYLGSGYFTAIQNLRKSEEEVAARRARVVWCAVGEQELRKCNQWSGLSEGSVTCSSASTTEDCIALVLKGEADAMSLDGGYVYTAGKCGLVPVLAENYKSQQSSDPDPNCVDRPVEGYLAVAVVRRSDTSLTWNSVKGKKSCHTAVDRTAGWNIPMGLLFNQTGSCKFDEYFSQSCAPGSDPRSNLCALCIGDEQGENKCVPNSNERYYGYTGAFRCLAENAGDVAFVKDVTVLQNTDGNNNEAWAKDLKLADFALLCLDGKRKPVTEARSCHLAMAPNHAVVSRMDKVERLKQVLLHQQAKFGRNGSDCPDKFCLFQSETKNLLFNDNTECLARLHGKTTYEKYLGPQYVAGITNLKKCSTSPLLEACEFLRK
# modifications: full-length
# notes: full-length human lactoferrin protein
# Legend:
# [1] = literature; cited from earlier work
# [2] = literature; cited from earlier work; remark: listed apart in the source
# [3] = Biodistribution of full-length lactoferrin, lactoferricin and hLF-6 in LPS-challenged mice (IVIS); format: in vivo; conditions: fluorescent label, i.v., 2 h
# Description: Lactoferrin and lactoferricin are cloned in an expression plasmid containing the C-terminal Sortase-sequence protein-LPETG-HHHHHH. LPETGHHHHHH is SEQ ID NO: 98. Next, the protein is expressed overnight in E. coli and purified from sonicated bacterial cell lysates by Ni-NTA beads using 400 mM imidazole to elute the proteins. After overnight dialysis, full-length lactoferrin and hLF-6 are labelled by means of a Sortase exchange reaction on the C-terminus with a fluorescent dye (Alexa647 or Cy5.5) for 2 h at 4 °C using a fluorescently labelled donor peptide (formula:biotin-GSSG-LPETG-label or biotin-GSSG-LPETG-PEG40k-label) as substrate GSSGLPETG is SEQ ID NO: 99. Excess donor peptide is removed by means of streptavidin binding of the biotin tag on the N-terminus of the donor peptide. Next, the purified labelled protein/peptide is injected into LPS-challenged mice via intravenous injection in the tail vein. Mice are sacrificed after 2 h, and organs harvested for imaging by IVIS. Biodistribution is quantified for each organ, and relative distribution is shown.
# ITLN-1 = conditions: intestinal epithelial cells, literature; cited from earlier work
molecule,measurement,setting,value
B1,biodistribution of radioactive-labelled full-length protein,[1],comprise multiple organs and not primarily the kidney; also recorded: distribution to many organs
same,ribonuclease activity,[2],pyrimidine-specific ribonuclease activity
same,bio-distribution,[3],"accumulation predominantly in liver and spleen and less in kidney, brain and intestine"
same,uptake upon overexpression of ITLN-1,ITLN-1,increases uptake of lactoferrin in endosomes
